# T1: PEDF EEA variant (S24,114E, 227A)
# T1 chain: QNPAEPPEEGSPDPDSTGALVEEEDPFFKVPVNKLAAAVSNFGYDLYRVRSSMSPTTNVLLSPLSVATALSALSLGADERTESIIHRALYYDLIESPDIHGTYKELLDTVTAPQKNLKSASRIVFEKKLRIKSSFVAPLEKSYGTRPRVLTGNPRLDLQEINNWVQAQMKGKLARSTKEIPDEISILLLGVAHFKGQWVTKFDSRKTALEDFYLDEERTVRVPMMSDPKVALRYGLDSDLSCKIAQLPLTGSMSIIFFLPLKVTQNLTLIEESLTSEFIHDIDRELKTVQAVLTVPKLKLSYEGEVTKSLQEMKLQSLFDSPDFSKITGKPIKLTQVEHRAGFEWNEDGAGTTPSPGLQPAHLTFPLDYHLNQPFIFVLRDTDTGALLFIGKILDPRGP
# T2: PEDF S227E variant
# T2 chain: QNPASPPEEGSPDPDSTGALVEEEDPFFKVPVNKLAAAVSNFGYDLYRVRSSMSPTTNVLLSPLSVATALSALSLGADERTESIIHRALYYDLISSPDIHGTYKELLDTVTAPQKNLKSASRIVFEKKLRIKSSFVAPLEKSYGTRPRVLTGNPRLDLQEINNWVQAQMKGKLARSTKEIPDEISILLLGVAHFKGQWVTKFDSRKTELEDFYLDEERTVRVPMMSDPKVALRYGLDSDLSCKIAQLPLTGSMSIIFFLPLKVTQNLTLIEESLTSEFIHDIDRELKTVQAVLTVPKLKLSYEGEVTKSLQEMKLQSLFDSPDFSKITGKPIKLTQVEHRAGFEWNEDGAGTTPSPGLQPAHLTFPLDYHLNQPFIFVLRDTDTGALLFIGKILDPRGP
# T3: PEDF AAA variant (S24,114, 227A)
# T3 chain: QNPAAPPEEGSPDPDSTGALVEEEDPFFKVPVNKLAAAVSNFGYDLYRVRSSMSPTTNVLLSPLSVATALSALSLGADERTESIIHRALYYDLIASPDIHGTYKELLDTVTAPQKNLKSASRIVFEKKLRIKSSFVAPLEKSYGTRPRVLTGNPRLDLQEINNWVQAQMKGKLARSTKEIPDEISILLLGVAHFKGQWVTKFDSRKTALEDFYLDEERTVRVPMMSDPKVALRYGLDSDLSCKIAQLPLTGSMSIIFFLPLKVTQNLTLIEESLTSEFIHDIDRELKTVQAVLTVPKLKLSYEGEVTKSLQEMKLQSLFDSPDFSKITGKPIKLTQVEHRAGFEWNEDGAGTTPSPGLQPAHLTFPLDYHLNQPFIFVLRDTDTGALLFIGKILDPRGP
# T4: PEDF AAE variant (S24,114A, 227E)
# T4 chain: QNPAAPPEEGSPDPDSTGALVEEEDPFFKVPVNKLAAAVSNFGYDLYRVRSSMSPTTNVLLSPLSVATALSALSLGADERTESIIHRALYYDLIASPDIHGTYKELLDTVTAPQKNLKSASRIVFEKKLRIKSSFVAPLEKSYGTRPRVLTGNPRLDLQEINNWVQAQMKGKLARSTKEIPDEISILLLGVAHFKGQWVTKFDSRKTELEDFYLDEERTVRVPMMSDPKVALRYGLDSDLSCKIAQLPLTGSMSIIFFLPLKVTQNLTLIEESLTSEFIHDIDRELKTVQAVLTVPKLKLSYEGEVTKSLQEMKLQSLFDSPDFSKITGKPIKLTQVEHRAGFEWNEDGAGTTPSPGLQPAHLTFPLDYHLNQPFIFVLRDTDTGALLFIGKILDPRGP
# T5: PEDF purified from human plasma (plPEDF)
# T5 chain: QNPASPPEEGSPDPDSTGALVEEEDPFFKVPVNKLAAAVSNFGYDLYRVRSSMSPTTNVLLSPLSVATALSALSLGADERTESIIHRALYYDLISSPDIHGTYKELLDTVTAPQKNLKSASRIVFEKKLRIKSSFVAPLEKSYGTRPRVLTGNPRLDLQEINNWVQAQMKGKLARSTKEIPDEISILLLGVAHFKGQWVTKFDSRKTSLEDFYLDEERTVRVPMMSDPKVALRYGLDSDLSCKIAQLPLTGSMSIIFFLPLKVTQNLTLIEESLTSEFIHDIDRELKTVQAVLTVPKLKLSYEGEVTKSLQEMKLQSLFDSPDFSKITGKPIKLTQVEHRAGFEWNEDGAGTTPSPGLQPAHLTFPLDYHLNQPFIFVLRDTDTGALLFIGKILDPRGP
# T6: Recombinant human pigment epithelium derived factor (rPEDF)
# T6 chain: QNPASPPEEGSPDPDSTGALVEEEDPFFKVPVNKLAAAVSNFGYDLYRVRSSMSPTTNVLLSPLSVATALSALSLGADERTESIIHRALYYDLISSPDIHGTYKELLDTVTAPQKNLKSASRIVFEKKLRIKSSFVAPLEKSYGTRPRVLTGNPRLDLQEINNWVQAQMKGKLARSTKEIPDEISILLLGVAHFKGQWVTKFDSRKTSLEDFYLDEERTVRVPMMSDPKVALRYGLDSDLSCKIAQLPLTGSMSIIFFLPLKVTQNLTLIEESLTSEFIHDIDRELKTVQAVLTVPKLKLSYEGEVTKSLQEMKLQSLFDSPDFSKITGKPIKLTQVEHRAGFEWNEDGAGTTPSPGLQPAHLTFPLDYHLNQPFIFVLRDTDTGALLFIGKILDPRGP
# T7: PEDF EEE variant (S24,114, 227E)
# T7 chain: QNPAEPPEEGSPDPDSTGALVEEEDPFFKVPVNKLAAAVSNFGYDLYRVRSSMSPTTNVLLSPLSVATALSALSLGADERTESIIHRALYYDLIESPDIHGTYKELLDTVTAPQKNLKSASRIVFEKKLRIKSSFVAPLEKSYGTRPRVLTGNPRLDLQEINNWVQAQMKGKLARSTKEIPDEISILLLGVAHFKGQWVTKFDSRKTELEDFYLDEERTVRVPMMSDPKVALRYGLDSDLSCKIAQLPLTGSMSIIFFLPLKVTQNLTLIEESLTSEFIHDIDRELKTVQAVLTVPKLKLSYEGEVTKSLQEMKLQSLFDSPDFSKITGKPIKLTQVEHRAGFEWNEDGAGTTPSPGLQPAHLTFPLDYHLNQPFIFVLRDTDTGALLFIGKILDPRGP
# T8: PEDF S227A variant
# T8 chain: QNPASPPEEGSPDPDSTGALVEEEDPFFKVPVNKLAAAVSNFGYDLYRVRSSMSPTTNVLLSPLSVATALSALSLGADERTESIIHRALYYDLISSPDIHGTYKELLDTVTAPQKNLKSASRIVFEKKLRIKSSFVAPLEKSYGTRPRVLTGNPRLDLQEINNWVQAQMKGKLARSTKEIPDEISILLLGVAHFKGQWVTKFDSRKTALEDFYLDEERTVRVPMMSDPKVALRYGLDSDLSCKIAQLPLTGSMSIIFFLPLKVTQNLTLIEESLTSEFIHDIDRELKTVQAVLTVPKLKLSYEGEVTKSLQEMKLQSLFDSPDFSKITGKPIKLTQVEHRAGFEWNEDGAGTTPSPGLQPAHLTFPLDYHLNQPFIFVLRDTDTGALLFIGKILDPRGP
# Columns and labels:
# [1] = target: T1, PEDF EEA variant (S24,114E, 227A)
# PEDF S227E variant = target: T2, PEDF S227E variant
# [2] = target: T3, PEDF AAA variant (S24,114, 227A)
# [3] = target: T4, PEDF AAE variant (S24,114A, 227E)
# [4] = target: T5, PEDF purified from human plasma (plPEDF)
# [5] = target: T6, Recombinant human pigment epithelium …
# [6] = target: T7, PEDF EEE variant (S24,114, 227E)
# PEDF S227A variant = target: T8, PEDF S227A variant
protein,measurement,setting,value
Recombinant human CK2 (casein kinase CK2) (protein) MSGPVPSRARVYTDVNTHRPREYWDYESHVVEWGNQDDYQLVRKLGRGKYSEVFEAINITNNEKVVVKILKPVKKKKIKREIKILENLRGGPNIITLADIVKDPVSRTPALVFEHVNNTDFKQLYQTLTDYDIRFYMYEILKALDYCHSMGIMHRDVKPHNVMIDHEHRKLRLIDWGLAEFYHPGQEYNVRVASRYFKGPELLVDYQMYDYSLDMWSLGCMLASMIFRKEPFFHGHDNYDQLVRIAKVLGTEDLYDYIDKYNIELDPRFNDILGRHSRKRWERFVHSENQHLVSPEALDFLDKLLRYDHQSRLTAREAMEHPYFYTVVKDQARMGSSSMPGGSTPVSSANMMSGISSVPTPSPLGPLAGSPVIAAANPLGMPVPAAAGAQQ,in vitro phosphorylation by CK2,[1],the triple mutants EEE and EEA were readily phosphorylated by CK2
same,"in vitro phosphorylation by CK2 ([γ32P]-ATP, SDS-PAGE, autoradiography)",PEDF S227E variant,both readily phosphorylated by CK2
same,in vitro phosphorylation by CK2,[2],The AAE and the AAA variants almost completely abolished CK2 phosphorylation
same,in vitro phosphorylation by CK2,[3],The AAE and the AAA variants almost completely abolished CK2 phosphorylation
same,"in vitro phosphorylation by CK2 ([γ32P]-ATP, SDS-PAGE, autoradiography)",[4],the phosphorylation of the plPEDF by CK2 was significantly lower than CK2 phosphorylation of the rPEDF
same,"in vitro phosphorylation by CK2 ([γ32P]-ATP, SDS-PAGE, autoradiography)",[5],the phosphorylation of the plPEDF by CK2 was significantly lower than CK2 phosphorylation of the rPEDF
same,in vitro phosphorylation by CK2,[6],the triple mutants EEE and EEA were readily phosphorylated by CK2
same,"in vitro phosphorylation by CK2 ([γ32P]-ATP, SDS-PAGE, autoradiography)",PEDF S227A variant,both readily phosphorylated by CK2

# Reference: patent US20080274967
